Results on 3 molecules are retold here after article PMC9084892, “Von Willebrand factor A1 domain stability and affinity for GPIbα are differentially regulated by its O-glycosylated N- and C-linker” (eLife, 2022).

Usually Kd stands for the constant that tells how readily two partners part at equilibrium.

One assay deals with GPIbα (Homo sapiens) (UniProt P07359). Particulars: cited from earlier work.
Assay [1] deals with T1, VWF A1 domain construct A1 short (residues 1264-1469) (human, UniProt P04275 1264-1469).
T1 construct: von Willebrand factor, human, A1 domain without the N- and C-linkers, residues 1264-1469, pre-pro-VWF numbering; Both the mammalian and the bacterial methods allow a 1264-1469 construct; If it was made in E. coli, it carried an N-terminal thioredoxin that was cut off with TEV protease; Long-range disulfide Cys1272-Cys1458 is present; source: purified (Ni-NTA, Superdex 200), gel filtered again on …
Briefly: BLI; biotinylated GPIbα on streptavidin sensors, A1 constructs as analyte; 20 mM HEPES pH 7.5, 0.02% Tween-20, 150 mM NaCl; global fit to a single kon and koff; Octet RED384. The note with it: both partners purified. Background: BLI is a label-free optical method that tracks binding on a fibre tip over time.

Assay [2] concerns the target T2, VWF A1 domain construct A1+OGly+N+C (residues 1238-1489, O-glycosylated) (human, UniProt P04275 1238-1489, O-glycosylated N- and C-linkers).
T2 construct: von Willebrand factor, human, A1 domain with the N- and C-linkers, residues 1238-1489, pre-pro-VWF numbering; It extends three residues beyond the bacterial A1+N+C so as to include the O-glycosylated residues Ser-1486 and Thr-1487; also called A1NC
The description is as above. The note with it: both partners purified.

The target of assay [3] is T1, VWF A1 domain construct A1 short …. The assay can be described thus: ITC; GPIbα (250 uM; 550 uM with A1+OGly+N+C) titrated into A1 (22 uM; 50 uM with A1+OGly+N+C); 150 mM NaCl, 20 mM Tris-HCl pH 7.5, 22°C; MicroCal iTC200. Particulars: both partners purified. On the technique in general: ITC needs no label: the signal is the heat of the interaction.

On to “von Willebrand factor A1 (tethered, high-affinity state) (from UniProt P04275)”, for which the equilibrium dissociation constant (Kd) in the assay with GPIbα (Homo sapiens) is 80 nM.

B1: Wild-type GPIbα, residues 1-290 of the mature protein, with biotinylated Avi-tag and His6 tag (domain or fragment)
chain: HPICEVSKVASHLEVNCDKRNLTALPPDLPKDTTILHLSENLLYTFSLATLMPYTRLTQLNLDRCELTKLQVDGTLPVLGTLDLSHNQLQSLPLLGQTLPALTVLDVSFNRLTSLPLGALRGLGELQELYLKGNELKTLPPGLLTPTPKLEKLSLANNNLTELPAGLLNGLENLDTLLLQENSLYTIPKGFFGSHLLPFAFLHGNPWLCNCEILYFRRWLQDNAENVYVWKQGVDVKAMTSNVASVQCDNSDKFPVYKYPGKGCPTLGDEGDTDLYDYYPEEDTEGDKVR
modifications: biotin on the Avi-tag
As to B1, the values for the Kd in assay [1] and in assay [2] were 180 nM and 9200 nM, respectively.

B2: Wild-type GPIbα, residues 1-290 of the mature protein, with His6 tag (no Avi-tag) (domain or fragment)
chain: HPICEVSKVASHLEVNCDKRNLTALPPDLPKDTTILHLSENLLYTFSLATLMPYTRLTQLNLDRCELTKLQVDGTLPVLGTLDLSHNQLQSLPLLGQTLPALTVLDVSFNRLTSLPLGALRGLGELQELYLKGNELKTLPPGLLTPTPKLEKLSLANNNLTELPAGLLNGLENLDTLLLQENSLYTIPKGFFGSHLLPFAFLHGNPWLCNCEILYFRRWLQDNAENVYVWKQGVDVKAMTSNVASVQCDNSDKFPVYKYPGKGCPTLGDEGDTDLYDYYPEEDTEGDKVR
modifications: Mature 1-290 = precursor 17-306 (signal peptide 1-16). The His6 tag is left out; no Avi-tag or biotin. Expressed in HEK293, so glycosylated and disulfide-bonded.
Regarding B2, in assay [3], the “fold higher affinity of A1 short than of A1+OGly+N+C” value is 39 fold.
